Laboratory results: paper PMC7529705
“And” between values parts separate entries of the source, which are not always exact repeats. Equal entries are not always repeated.

Biological target: WD-40 repeat-containing protein 5 (WDR5), full-length (human) (UniProt P61964)
Experiment: ITC

Substance	Kd
Histone H3 1–7aa H3R2me1 peptide (from UniProt P68431 2-8)	8.1 µM and 9 µM
Histone H3 1–7aa H3R2me2s peptide (from UniProt P68431 2-8)	10.6 µM and 10.2 µM
Histone H3 1–7aa unmodified peptide (from UniProt P68431 2-8)	11 µM and 11.8 µM
